The star is where a group is joined. 5‑TAMRA = CN(C)c1ccc2c(-c3ccc(C(=O)*)cc3C(=O)[O-])c3ccc(N(C)C)cc3[o+]c2c1
Columns and labels:
Conditions in all cases: both partners purified
[1] = biological target: T1, WBP1, subunit of S. cerevisiae OST (S. cerevisiae, UniProt P33767 21-430); assay: cryo-EM structure; nanodisc-reconstituted OST 2.5 uM incubated with 7.5 uM Dol20-PP-GlcNAc2Man9Glc3 and 500 uM TAMRA-YA(Dab)ATS peptide for 15 min before vitrification; MnCl2 present; the sample gave two states, LLO-bound (3.0 A) and ternary complex (3.1 A)
T1 construct: WBP1, non-catalytic subunit of S. cerevisiae OST; Stood in the assay within the whole OST complex; also called WPB1; source: S. cerevisiae, as a subunit of the purified OST complex (Rho-1D4 antibody Sepharose through OST4-1D4, SEC)
T1 sequence (looked up): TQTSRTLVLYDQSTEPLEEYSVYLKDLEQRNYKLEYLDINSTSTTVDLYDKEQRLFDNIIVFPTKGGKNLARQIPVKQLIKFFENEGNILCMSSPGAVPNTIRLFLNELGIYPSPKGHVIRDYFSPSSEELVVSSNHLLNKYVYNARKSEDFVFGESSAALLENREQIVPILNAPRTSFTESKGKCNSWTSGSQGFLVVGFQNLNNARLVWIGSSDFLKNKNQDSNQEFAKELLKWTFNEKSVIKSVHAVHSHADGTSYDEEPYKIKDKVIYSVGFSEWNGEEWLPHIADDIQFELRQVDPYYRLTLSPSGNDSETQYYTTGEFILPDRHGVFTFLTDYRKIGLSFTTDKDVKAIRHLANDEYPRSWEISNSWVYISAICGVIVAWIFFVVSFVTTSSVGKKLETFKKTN

[2] = biological target: T2, S. cerevisiae oligosaccharyltransferase (OST) complex, OST3-containing (S. cerevisiae, UniProt P39007 1-718; P41543 23-476; Q92316 1-86; P48439 23-350; Q99380 1-36; P46964 …); assay: cryo-EM structure; digitonin-purified OST 18 uM incubated with 500 uM TAMRA-YANATS peptide for 15 min before vitrification, no LLO; the sample gave two states, peptide-bound (2.8 A) and apo (2.9 A)
T2 construct: STT3, catalytic subunit of S. cerevisiae OST; OST1, subunit of S. cerevisiae OST (subcomplex I); OST5, subunit of S. cerevisiae OST (subcomplex I); OST3, oxidoreductase subunit of S. cerevisiae OST (subcomplex II); expressed from the plasmid YEp352-OST3 in an ost6 deletion strain; OST4, subunit of S. cerevisiae OST (subcomplex II); genomic OST4-1D4; OST2, subunit of S. cerevisiae OST (subcomplex …)
T2 sequence (P41543 23-476, chain 2 of 4): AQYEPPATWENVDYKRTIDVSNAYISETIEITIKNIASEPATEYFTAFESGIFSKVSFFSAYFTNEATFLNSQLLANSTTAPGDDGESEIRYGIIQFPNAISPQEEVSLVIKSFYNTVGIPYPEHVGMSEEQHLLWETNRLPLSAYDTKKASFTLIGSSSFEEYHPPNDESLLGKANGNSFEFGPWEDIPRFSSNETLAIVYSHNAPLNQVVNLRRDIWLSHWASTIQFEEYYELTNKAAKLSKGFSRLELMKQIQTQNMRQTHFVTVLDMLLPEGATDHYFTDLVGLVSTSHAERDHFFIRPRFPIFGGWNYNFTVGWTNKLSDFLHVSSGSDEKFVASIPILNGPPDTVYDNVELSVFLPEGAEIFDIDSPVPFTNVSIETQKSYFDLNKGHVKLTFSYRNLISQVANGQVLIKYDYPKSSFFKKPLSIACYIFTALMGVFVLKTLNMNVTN
T2 sequence (Q92316 whole entry, chain 3 of 4): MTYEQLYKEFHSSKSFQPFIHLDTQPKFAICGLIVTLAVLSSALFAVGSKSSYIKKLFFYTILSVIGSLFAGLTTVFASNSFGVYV
T2 sequence (Q99380 whole entry, chain 5 of 4): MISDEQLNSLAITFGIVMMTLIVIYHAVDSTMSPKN
T2 sequence (Q02795 20-286, chain 8 of 4, further chain): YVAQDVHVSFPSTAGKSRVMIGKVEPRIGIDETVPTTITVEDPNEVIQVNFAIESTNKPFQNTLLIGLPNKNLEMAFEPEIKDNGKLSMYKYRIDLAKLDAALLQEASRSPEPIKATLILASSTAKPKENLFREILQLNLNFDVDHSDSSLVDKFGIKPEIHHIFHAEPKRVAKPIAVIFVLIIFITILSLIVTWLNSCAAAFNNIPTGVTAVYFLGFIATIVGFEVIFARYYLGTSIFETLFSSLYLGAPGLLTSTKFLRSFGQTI

[3] = biological target: T3, STT3, catalytic subunit of S. cerevisiae OST (S. cerevisiae, UniProt P39007 1-718); assay: cryo-EM structure; nanodisc-reconstituted OST 2.5 uM incubated with 7.5 uM Dol20-PP-GlcNAc2Man9Glc3 and 500 uM TAMRA-YA(Dab)ATS peptide for 15 min before vitrification; MnCl2 present; the sample gave two states, LLO-bound (3.0 A) and ternary complex (3.1 A)
T3 construct: STT3, catalytic subunit of S. cerevisiae OST; Stood in the assay within the whole OST complex; also called S.c; STT3; source: S. cerevisiae, as a subunit of the purified OST complex (Rho-1D4 antibody Sepharose through OST4-1D4, SEC)
T3 sequence: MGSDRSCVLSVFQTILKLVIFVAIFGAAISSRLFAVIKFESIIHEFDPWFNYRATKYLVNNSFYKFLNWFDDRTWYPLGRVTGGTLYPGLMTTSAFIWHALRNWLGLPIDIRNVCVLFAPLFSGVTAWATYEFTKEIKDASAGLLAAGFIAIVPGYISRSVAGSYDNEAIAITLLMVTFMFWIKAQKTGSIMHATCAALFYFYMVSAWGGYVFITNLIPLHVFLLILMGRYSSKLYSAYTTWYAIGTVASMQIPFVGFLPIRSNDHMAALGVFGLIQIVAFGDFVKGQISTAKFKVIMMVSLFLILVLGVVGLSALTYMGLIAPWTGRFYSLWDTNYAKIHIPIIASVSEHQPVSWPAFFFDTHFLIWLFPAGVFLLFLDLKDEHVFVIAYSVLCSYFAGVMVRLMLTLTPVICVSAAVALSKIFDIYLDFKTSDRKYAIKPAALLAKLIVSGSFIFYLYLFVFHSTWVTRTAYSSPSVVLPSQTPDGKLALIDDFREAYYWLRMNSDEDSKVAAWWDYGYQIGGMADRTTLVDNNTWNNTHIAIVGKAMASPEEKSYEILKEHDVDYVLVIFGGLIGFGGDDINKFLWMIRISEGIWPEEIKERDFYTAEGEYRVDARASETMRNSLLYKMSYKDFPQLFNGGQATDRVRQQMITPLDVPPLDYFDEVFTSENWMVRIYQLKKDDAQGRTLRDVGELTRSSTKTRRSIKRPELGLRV

B1: OST2, subunit of S. cerevisiae OST (natural protein)
chain: MAKAPKANTPKVTSTSSAVLTDFQETFKTSKRAYFAQIEKYPKLKLIDTFCFFLVLLGVIQCTFIILIRDNFPFNAFLAGFIICVGQFVLLMSLRLQLCNSFPGISKNRAFAEFIVASLILHFVCLHFIN
notes: OST2, non-catalytic subunit of S. cerevisiae OST; Stood in the assay within the whole OST complex; source: S. cerevisiae, as a subunit of the purified OST complex (Rho-1D4 antibody Sepharose through OST4-1D4, SEC)
**Q.** Does B1 bind [1]?
**A.** Result: binds

B2: TAMRA-YANATS-NH2 (peptide)
peptide: {5‑TAMRA}-YANATS-NH2
SMILES: C[C@H](NC(=O)[C@H](Cc1ccc(O)cc1)NC(=O)c1ccc(-c2c3ccc(N(C)C)cc3[o+]c3cc(N(C)C)ccc23)c(C(=O)[O-])c1)C(=O)N[C@@H](CC(N)=O)C(=O)N[C@@H](C)C(=O)N[C@H](C(=O)N[C@@H](CO)C(N)=O)[C@@H](C)O
notes: acceptor substrate of OST; also called 5-TAMRA-YANATS; reactive peptide; source: bought: Genscript
**Q.** Does B2 bind [2]?
**A.** Result: binds

B3: OST3, subunit of S. cerevisiae OST (natural protein, UniProt P48439 23-350, looked up)
chain: MSSNRLLKLANKSPKKIIPLKDSSFENILAPPHENAYIVALFTATAPEIGCSLCLELESEYDTIVASWFDDHPDAKSSNSDTSIFFTKVNLEDPSKTIPKAFQFFQLNNVPRLFIFKPNSPSILDHSVISISTDTGSERMKQIIQAIKQFSQVNDFSLHLPMDWTPIITSTIITFITVLLFKKQSKLMFSIISSRIIWATLSTFFIICMISAYMFNQIRNTQLAGVGPKGEVMYFLPNEFQHQFAIETQVMVLIYGTLAALVVVLVKGIQFLRSHLYPETKKAYFIDAILASFCALFIYVFFAALTTVFTIKSPAYPFPLLRLSAPFK
notes: OST3, oxidoreductase subunit of S. cerevisiae OST; Stood in the assay within the whole OST complex; source: S. cerevisiae (YEp352-OST3), as a subunit of the purified OST complex (Rho-1D4 antibody Sepharose through OST4-1D4, SEC)
**Q.** Does B3 bind [3]?
**A.** Result: binds
